In the supplement of paper PMC10724198:
± gives the standard deviation of the averaged measurements.

Test system: Saccharomyces cerevisiae
Assay: protein stability index of tFT-peptide fusion (C-terminal peptide) (PSI (0-1 scale)); higher = more stable (slower turnover)
Conditions: genetic background: wild type; temperature: 30 C
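Also: PSI is a weighted mean of sequencing reads over stability bins, variants kept only with over 10 reads, mCherry proximal and sfGFP distal, peptide attached via GGGS linker.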

SRLPPHSPVHAS
protein stability index: 0.787 ± 0.042

SRLRFSIAPSIF
protein stability index: 0.685 ± 0.022

SRLRVVRCVSWV
protein stability index: 0.549 ± 0.1

SRMRADRYWRNY
protein stability index: 0.622 ± 0.019

SRNFSIQILRER
protein stability index: 0.659 ± 0.019

SRPPLLPTPPPS
protein stability index: 0.701 ± 0.047

SRPPTFPPFFPS
protein stability index: 0.702 ± 0.015

SRPRPPPTPALP
protein stability index: 0.679 ± 0.0056

SRPRPSPSPFIA
protein stability index: 0.708 ± 0.045

SRPSSFRLRFLH
protein stability index: 0.393 ± 0.18

SRRGVVGLRVGI
protein stability index: 0.674 ± 0.033

SRRSTIRCSTSC
protein stability index: 0.717 ± 0.036

SRSAPPPSPGMT
protein stability index: 0.746 ± 0.052

SRSGVKKDIRKL
protein stability index: 0.657 ± 0.059

SRSRPLCGVSGV
protein stability index: 0.687 ± 0.052

SRTLPHRTAPHC
protein stability index: 0.758 ± 0.054

SRVERRRTSREG
protein stability index: 0.672 ± 0.083

SRVVHSHRSFRP
protein stability index: 0.6843 ± 0.0047

SRWDSDRGGERR
protein stability index: 0.805 ± 0.027

SRWTLRTSMDLG
protein stability index: 0.616 ± 0.013

SSASDVYQVINS
protein stability index: 0.676 ± 0.009

SSASSLTIYTRG
protein stability index: 0.728 ± 0.024

SSCWRAWAVNGL
protein stability index: 0.677 ± 0.063

SSESPPLLPRPL
protein stability index: 0.754 ± 0.032

SSFGPSFLTLFF
protein stability index: 0.70403 ± 0.00044

SSFGSALRPRGV
protein stability index: 0.677 ± 0.029

SSFPPPPAAPPP
protein stability index: 0.667 ± 0.041

SSGASTSIVSTL
protein stability index: 0.678 ± 0.015

SSKVFCRVAKRE
protein stability index: 0.724 ± 0.026

SSLLLLFYPPLP
protein stability index: 0.712 ± 0.016

SSLPALRSPCHP
protein stability index: 0.738 ± 0.06

SSLPPLRPFSPS
protein stability index: 0.726 ± 0.075

SSLPPPPRSPPH
protein stability index: 0.715 ± 0.029

SSLPRPSHSLSL
protein stability index: 0.617 ± 0.068

SSLRPPPPLPPP
protein stability index: 0.682 ± 0.012

SSLSPPPPLPPW
protein stability index: 0.706 ± 0.075

SSNSRPTGSGGS
protein stability index: 0.694 ± 0.1

SSPLPPPHASHP
protein stability index: 0.7104 ± 0.0043

SSPLPPSLPSSR
protein stability index: 0.671 ± 0.025

SSPLWDGLPRLT
protein stability index: 0.736 ± 0.028

SSPPPAFPRASP
protein stability index: 0.633 ± 0.015

SSPPPPVPPPPS
protein stability index: 0.725 ± 0.082

SSPPSPPPPTPS
protein stability index: 0.702 ± 0.031

SSPSFVVFPFVS
protein stability index: 0.685 ± 0.017

SSPSPALLFPAR
protein stability index: 0.715 ± 0.036

SSPSSLPAPPSA
protein stability index: 0.666 ± 0.039

SSRLLRGGTGFL
protein stability index: 0.722 ± 0.029

SSRPPLPPPRIH
protein stability index: 0.618 ± 0.017

SSRRVGRWGGLG
protein stability index: 0.618 ± 0.11

SSRYVATANICR
protein stability index: 0.69 ± 0.013

SSSCRGGVSVLV
protein stability index: 0.679 ± 0.044

SSSRHHTSLFSP
protein stability index: 0.679 ± 0.014

SSSYPFPAPALR
protein stability index: 0.683 ± 0.043

SSTVGKEGTSRI
protein stability index: 0.69 ± 0.048

SSVNRTADGTKP
protein stability index: 0.69 ± 0.02

SSWWPVRRTRLG
protein stability index: 0.587 ± 0.022

SSYYTGVVTACL
protein stability index: 0.659 ± 0.052

STAELSNSLIGR
protein stability index: 0.703 ± 0.033

STGSAISSLSDR
protein stability index: 0.68 ± 0.11

STHLPPLPATLP
protein stability index: 0.784 ± 0.1

STILSAEKTKLG
protein stability index: 0.707 ± 0.02

STNIDQKKKEEK
protein stability index: 0.7 ± 0.03

STPPPPHSASRS
protein stability index: 0.728 ± 0.059

STPRLERDGTTI
protein stability index: 0.635 ± 0.014

STRLFTHPRFLP
protein stability index: 0.68 ± 0.013

STSRSFFFCSFL
protein stability index: 0.644 ± 0.072

STSSPSSSTLLP
protein stability index: 0.719 ± 0.031

STSWDDLLYHSG
protein stability index: 0.716 ± 0.059

STTLKIHRKNRK
protein stability index: 0.725 ± 0.063

STTQFTLSATRI
protein stability index: 0.717 ± 0.093

STVKARVLIITS
protein stability index: 0.5231 ± 0.0032

STVTSGCLKRIS
protein stability index: 0.723 ± 0.03

STYIMTFTSWEP
protein stability index: 0.68 ± 0.0078

SVCLLKSWHERQ
protein stability index: 0.725 ± 0.033

SVDEARSVRCVI
protein stability index: 0.661 ± 0.025

SVFFFLPIYFPF
protein stability index: 0.633 ± 0.033

SVFVDNLAFSLD
protein stability index: 0.708 ± 0.071

SVGFYMLECVDD
protein stability index: 0.688 ± 0.0099

SVGGVGVEIQSV
protein stability index: 0.629 ± 0.15

SVGVGSFVVLGV
protein stability index: 0.6543 ± 0.0024

SVHRRRSLLTPL
protein stability index: 0.706 ± 0.05

SVKHTFAHSVNS
protein stability index: 0.6442 ± 0.0018

SVKTGAAKDRLE
protein stability index: 0.6929 ± 0.003

SVLDAVGGSVTA
protein stability index: 0.668 ± 0.092

SVLRPPAAPPFL
protein stability index: 0.674 ± 0.046

SVLVLGRSRPSF
protein stability index: 0.688 ± 0.047

SVLWLSSLRVPL
protein stability index: 0.7074 ± 0.0032

SVPTSLCYSFSP
protein stability index: 0.5957 ± 0.0034

SVRAHGDIQIPR
protein stability index: 0.732 ± 0.073

SVRHPPWDHRPP
protein stability index: 0.571 ± 0.083

SVSCVSRTVAPS
protein stability index: 0.684 ± 0.027

SVSTDTLQVYAI
protein stability index: 0.658 ± 0.013

SVSVFLMGLRGT
protein stability index: 0.694 ± 0.015

SVTDCTADHASV
protein stability index: 0.653 ± 0.056

SVTLYLTPPSLT
protein stability index: 0.67 ± 0.062

SVTPSPPPSRPF
protein stability index: 0.678 ± 0.057

SVVSLLCQFLLG
protein stability index: 0.673 ± 0.13

SVWVCLASWCCG
protein stability index: 0.5487 ± 0.0038

SVYLKLSECRSV
protein stability index: 0.6877 ± 0.0018

SVYLPFPSGLLL
protein stability index: 0.728 ± 0.073

SWTEPISNTVLP
protein stability index: 0.77 ± 0.034
